Reference: patent US20200239543A1 (ALX ONCOLOGY, published 2020)
Where a chain is given by its changes, count along the chain named.

B1: SIRP-α D1 variant fused to Fc variant, SEQ ID NO: 108 (Fc fusion)
chain: EEELQVIQPDKSVLVAAGETATLRCTATSLFPVGPIQWFRGAGPGRELIYNQRQGPFPRVTTVSDLTKRNNMDFSIRIGAITPADAGTYYCVKFRKGSPDDVEFKSGAGTELSVRAKPSVECPPCPAPPVAGPSVFLFPPKPKDTLMISRTPEVTCVVVDVSHEDPEVQFNWYVDGVEVHNAKTKPREEQFASTFRVVSVLTVVHQDWLNGKEYKCKVSNKGLPSSIEKTISKTKGQPREPQVYTLPPSREEMTKNQVSLTCLVKGFYPSDIAVEWESNGQPENNYKTTPPMLDSDGSFFLYSKLTVDKSRWQQGNVFSCSVMHEALHNHYTQKSLSLSPGK
B2: SIRP-α D1 variant fused to Fc variant, SEQ ID NO: 111 (Fc fusion)
chain: B1 chain with V6I, A27I, Q54E
B3: SIRP-α D1 variant fused to Fc variant, SEQ ID NO: 109 (Fc fusion)
chain: B1 chain with Q54E
B4: SIRP-α D1 variant fused to Fc variant, SEQ ID NO: 114 (Fc fusion)
chain: EEELQIIQPDKSVLVAAGETATLRCTITSLFPVGPIQWFRGAGPGRVLIYNQRQGPFPRVTTVSDTTKRNNMDFSIRIGNITPADAGTYYCIKFRKGSPDDVEFKSGAGTELSVRAKPSERKSSVECPPCPAPPVAGPSVFLFPPKPKDTLMISRTPEVTCVVVDVSHEDPEVQFNWYVDGVEVHNAKTKPREEQFASTFRVVSVLTVVHQDWLNGKEYKCKVSNKGLPSSIEKTISKTKGQPREPQVYTLPPSREEMTKNQVSLTCLVKGFYPSDIAVEWESNGQPENNYKTTPPMLDSDGSFFLYSKLTVDKSRWQQGNVFSCSVMHEALHNHYTQKSLSLSPGK
B5: SIRP-α D1 variant fused to Fc variant, SEQ ID NO: 115 (Fc fusion)
chain: B4 chain with I6V, I27A, V47E, T66L, I92V
B6: SIRP-α D1 variant fused to Fc variant, SEQ ID NO: 97 (Fc fusion)
chain: EEELQVIQPDKSVLVAAGETATLRCTATSLFPVGPIQWFRGAGPGRELIYNQRQGPFPRVTTVSDLTKRNNMDFSIRIGNITPADAGTYYCVKFRKGSPDDVEFKSGAGTELSVRAKPSDKTHTCPPCPAPEAAGAPSVFLFPPKPKDTLMISRTPEVTCVVVDVSHEDPEVKFNWYVDGVEVHNAKTKPREEQYASTYRVVSVLTVLHQDWLNGKEYKCKVSNKALPAPIEKTISKAKGQPREPQVYTLPPSREEMTKNQVSLTCLVKGFYPSDIAVEWESNGQPENNYKTTPPVLDSDGSFFLYSKLTVDKSRWQQGNVFSCSVMHEALHNHYTQKSLSLSPGK
B7: SIRP-α D1 variant fused to Fc variant, SEQ ID NO: 100 (Fc fusion)
chain: B6 chain with Q54E, N80A
B8: SIRP-α D1 variant polypeptide of SEQ ID NO: 54 (receptor)
chain: EEELQVIQPDKSVSVAAGESAILHCTVTSLFPVGPIQWFRGAGPARELIYNQRQGPFPRVTTVSESTKRENMDFSISISNITPADAGTYYCVKFRKGSPDTEFKSGAGTELSVRAKPS
notes: engineered SIRP-α D1 domain
B9: SIRP-α D1 variant polypeptide of SEQ ID NO: 59 (receptor)
chain: B8 chain with V6I, V27I, E47V, R53K, S66T, V92I
notes: engineered SIRP-α D1 domain
B10: SIRP-α D1 variant polypeptide of SEQ ID NO: 56 (receptor)
chain: B8 chain with V6I, E47V, S66T, V92I
notes: engineered SIRP-α D1 domain
B11: SIRP-α D1 variant polypeptide of SEQ ID NO: 58 (receptor)
chain: B8 chain with V6I, V27I, S66T, V92I
notes: engineered SIRP-α D1 domain
B12: SIRP-α D1 variant polypeptide of SEQ ID NO: 61 (receptor)
chain: B8 chain with V6I, V27I, E47V, P56H, S66T, V92I
notes: engineered SIRP-α D1 domain
B13: SIRP-α D1 variant polypeptide of SEQ ID NO: 62 (receptor)
chain: B8 chain with V6I, V27I, E47V, V92I
notes: engineered SIRP-α D1 domain
B14: SIRP-α D1 variant polypeptide of SEQ ID NO: 57 (receptor)
chain: B8 chain with V6I, V27I, F31I, E47V, S66T, V92I
notes: engineered SIRP-α D1 domain
B15: SIRP-α D1 variant polypeptide of SEQ ID NO: 60 (receptor)
chain: B8 chain with V6I, V27I, E47V, Q54E, S66T, V92I
notes: engineered SIRP-α D1 domain
B16: SIRP-α D1 variant polypeptide of SEQ ID NO: 63 (receptor)
chain: B8 chain with V6I, V27I, E47V, S66T
notes: engineered SIRP-α D1 domain
B17: SIRP-α D1 variant polypeptide of SEQ ID NO: 86 (receptor)
chain: EEELQIIQPDKSVLVAAGETATLRCTITSLFPVGPIQWFRGAGPGRVLIYNQRQGPFPRVTTVSDTTKRNNMDFSIRIGNITPADAGTYYCIKFRKGSPDDVEFKSGAGTELSVRAKPS
notes: engineered SIRP-α D1 domain
B18: SIRP-α D1 variant polypeptide of SEQ ID NO: 204 (receptor)
chain: B17 chain with F31R, V47E, Q54D, N80A, I92V
B19: SIRP-α D1 variant fused to Fc variant, SEQ ID NO: 104 (Fc fusion)
chain: B6 chain with V6I, A27I, Q54E, L66T, N80A
B20: SIRP-α D1 variant polypeptide of SEQ ID NO: 207 (receptor)
chain: B17 chain with F31Y, V47E, Q54D, N80A, I92V
B21: SIRP-α D1 variant polypeptide of SEQ ID NO: 199 (receptor)
chain: B17 chain with V47E, Q54D, N80A, I92V
B22: SIRP-α D1 variant polypeptide of SEQ ID NO: 198 (receptor)
chain: B17 chain with F31Y, V47E, Q54E, N80A, I92V
B23: SIRP-α D1 variant polypeptide of SEQ ID NO: 200 (receptor)
chain: B17 chain with V47E, Q54E, N80A, I92V, S98I
B24: SIRP-α D1 variant polypeptide of SEQ ID NO: 205 (receptor)
chain: B17 chain with F31R, V47E, Q54E, N80A, I92V, S98I
B25: SIRP-α D1 variant polypeptide of SEQ ID NO: 208 (receptor)
chain: B17 chain with F31Y, V47E, Q54E, N80A, I92V, S98I
B26: engineered SIRP-α D1 variant construct that does not bind CD47, SEQ ID NO: 215 (Fc fusion)
chain: B6 chain with F31I, V33R, Q52R, R53K, Q54E, P56H
notes: negative control; also called negative control
B27: SIRP-α D1 variant fused to Fc variant, SEQ ID NO: 214 (Fc fusion)
chain: EEELQVIQPDKSVLVAAGETATLRCTATSLFPVGPIQWFRGAGPGRELIYNQREGPFPRVTTVSDLTKRNNMDFSIRIGAITPADAGTYYCVKFRKGSPDDVEFKSGAGTELSVRAKPSERKSSVECPPCPAPPVAGPSVFLFPPKPKDTLMISRTPEVTCVVVDVSHEDPEVQFNWYVDGVEVHNAKTKPREEQFASTFRVVSVLTVVHQDWLNGKEYKCKVSNKGLPSSIEKTISKTKGQPREPQVYTLPPSREEMTKNQVSLTCLVKGFYPSDIAVEWESNGQPENNYKTTPPMLDSDGSFFLYSKLTVDKSRWQQGNVFSCSVMHEALHNHYTQKSLSLSPG

molecular target: T1, human CD47 (human, UniProt Q08722 19-139); test: SPR as in Example 1
T1 construct: extracellular domain; also called CD47 ECD
T1 sequence (Q08722 19-139 limits assumed): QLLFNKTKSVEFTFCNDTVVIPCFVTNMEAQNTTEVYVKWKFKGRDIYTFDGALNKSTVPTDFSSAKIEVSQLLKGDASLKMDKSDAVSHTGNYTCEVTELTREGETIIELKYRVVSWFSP

Row | Binder | Kd [nM]
1 | B1 | 0.478
2 | B2 | 0.315
3 | B3 | 2.15
4 | B4 | 0.0343
5 | B5 | 0.498
6 | B6 | 1.09
7 | B7 | 1.79

molecular target: T1, human CD47; test: SPR, 25 C, 1:1 Langmuir fit

Row | Binder | Kd [nM]
8 | B8 | 2.7
9 | B9 | 14
10 | B10 | 0.2
11 | B11 | 0.16
12 | B12 | 0.38
13 | B13 | 0.13
14 | B14 | 0.36
15 | B15 | 0.38
16 | B16 | 0.089

molecular target: T1, human CD47; test: SPR, 25 C, 1:1 Langmuir fit; remark: another data set of the same source

Row | Binder | Kd [nM]
17 | B17 | 0.0144
18 | B18 | 3.49
19 | B6 | 1.55
20 | B7 | 2.69
21 | B19 | 0.0919

molecular target: T2, mouse CD47 (mouse, UniProt Q61735 19-140, limits assumed); test: SPR, 25 C, 1:1 Langmuir fit
T2 construct: also called mouse CD47 protein
T2 sequence (looked up): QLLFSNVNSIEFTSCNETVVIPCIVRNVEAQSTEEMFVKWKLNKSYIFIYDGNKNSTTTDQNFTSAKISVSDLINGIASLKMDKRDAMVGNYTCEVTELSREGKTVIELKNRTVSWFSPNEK

Row | Binder | Kd [nM]
22 | B17 | 43
23 | B18 | 5.21
24 | B7 | 63.2
25 | B19 | 8.04

molecular target: T1, human CD47; test: SPR; protein made in E. coli

Row | Binder | Kd [nM]
26 | B8 | 2.7
27 | B9 | 14
28 | B10 | 0.2
29 | B11 | 0.16
30 | B12 | 0.38
31 | B13 | 0.13
32 | B14 | 0.36
33 | B15 | 0.38
34 | B16 | 0.089

molecular target: T1, human CD47; test: SPR (Biacore T100 and ProteOn XPR36)

Row | Binder | Kd [nM] | binding result
35 | B20 | 1.04 | 
36 | B21 | 1.26 | 
37 | B18 | 0.653 | 
38 | B22 | 0.155 | 
39 | B23 | 0.304 | 
40 | B24 | 0.248 | 
41 | B25 | 0.219 | 
42 | B26 |  | no binding
43 | B27 | 2 | 

molecular target: T2, mouse CD47; test: SPR (Biacore T100 and ProteOn XPR36)

Row | Binder | Kd [nM] | binding result
44 | B20 | 0.88 | 
45 | B21 | 1.25 | 
46 | B18 | 0.448 | 
47 | B22 | 1.41 | 
48 | B23 | 1.17 | 
49 | B24 | 0.569 | 
50 | B25 | 0.832 | 
51 | B26 |  | no binding
52 | B27 | 63 | 

molecular target: T3, rat CD47 (rat, UniProt P97829 19-140, limits assumed); test: SPR (Biacore T100 and ProteOn XPR36)
T3 sequence (looked up): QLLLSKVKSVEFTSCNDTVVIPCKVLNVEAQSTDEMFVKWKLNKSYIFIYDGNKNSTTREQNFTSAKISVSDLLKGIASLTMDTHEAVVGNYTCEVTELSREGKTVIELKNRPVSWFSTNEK

Row | Binder | Kd [nM] | binding result
53 | B20 | 5.9 | 
54 | B21 | 10.7 | 
55 | B18 | 3.42 | 
56 | B22 | 9.88 | 
57 | B23 | 14.2 | 
58 | B24 | 4.28 | 
59 | B25 | 5.17 | 
60 | B26 |  | no binding
61 | B27 | 80 | 
